Assay results: paper PMC9089796, “Oxidative stress promotes fibrosis in systemic sclerosis through stabilization of a kinase-phosphatase complex” (JCI Insight, 2022)

B1: His6-tagged oxidized PTP4A1 (residues 1-160), bound to Ni-NTA agarose (domain or fragment, human, UniProt Q93096 1-160, looked up)
chain: MARMNRPAPVEVTYKNMRFLITHNPTNATLNKFIEELKKYGVTTIVRVCEATYDTTLVEKEGIHVLDWPFDDGAPPSNQIVDDWLSLVKIKFREEPGCCIAVHCVAGLGRAPVLVALALIEGGMKYEDAVQFIRQKRRGAFNSKQLLYLEKYRPKMRLRF
modifications: oxidized: disulfide bond between Cys104 and Cys49
notes: also called oxo-PTP4A1; source: E. coli BL21 (DE3), purified (Ni-NTA, cation exchange); beads incubated with 0.5 mM H2O2 for 1 hour; not shown: His6, N-terminal, kept
B2: His6-tagged PTP4A1 (residues 1-160), untreated, bound to Ni-NTA agarose (domain or fragment, human, UniProt Q93096 1-160, looked up)
chain: B1 chain
notes: Not treated with H2O2 or DTT; also called protein tyrosine phosphatase 4A type 1; untreated beads containing both oxidized and reduced PTP4A1; source: E. coli BL21 (DE3), purified (Ni-NTA, cation exchange); not shown: His6, N-terminal, kept

Biological target: T1, full-length human SRC, purified (human, UniProt P12931 1-536)
T1 construct: also called full-length SRC; not shown: GST, N-terminal, cleaved
Test: pull-down; His6-tagged PTP4A1 on Ni-NTA agarose beads (untreated, or treated with 0.5 mM H2O2 or 20 mM DTT for 1 hour); 0.5 μg SRC or 17.2 nmol GST-tagged SH3SH2 in 1 mL 60 mM HEPES pH 7.4, 5 mM MgCl2, 5 mM MnCl2, 1% BSA; 4°C, 2 hours; Western blotting
Details: both partners purified

| Binder | binding result |
| --- | --- |
| B1 | binds |
| B2 | binds |
